In general, koff refers to a measure of how fast the partners let go of each other. Usually Kd stands for the constant that tells how readily two partners part at equilibrium. High values mean weaker binding, low ones tighter binding. In general, stoichiometry N refers to the number of molecules, sites or subunits per partner or assembly.

From paper PMC9838529 come the findings set out here.

Test [1] addresses monoclonal mouse antibody aE11 (full IgG) (mouse). As to the kind of experiment: SPR; aE11 IgG amine-coupled to a CM5 chip (~7000 RU), monomeric C9 as analyte; Biacore T200, 25 °C; 10 mM HEPES-NaOH pH 7.2, 150 mM NaCl, 1 mM EDTA, 0.005% P20; multi-cycle kinetics; off rate from a simple exponential decay (1:1 binding model); n = 2. For orientation: SPR reads the build-up and loss of mass on a sensor chip optically.

Another test addresses aE11 IgG (mouse). The experiment in a line: SPR; aE11 IgG amine-coupled to a CM5 chip (~7000 RU), monomeric C9 as analyte; Biacore T200, 25 °C; 10 mM HEPES-NaOH pH 7.2, 150 mM NaCl, 1 mM EDTA, 0.005% P20; multi-cycle kinetics; off rate from a simple exponential decay (1:1 model); steady state not reached.
Test [2] deals with polyC9 (in vitro homo-oligomerised human C9, wild type) (human). The experiment in a line: cryo-EM structure; aE11-Fab mixed with polyC9 in stoichiometric quantities; 1 mg/ml in 10 mM HEPES, 50 mM NaCl, pH 7.2; symmetry expansion and focused refinement of three C9 protomers and two Fab variable regions.

Where “and” joins values, the source holds several entries; their conditions need not be identical. Equal values may be shown once.

Sequence of monoclonal mouse antibody aE11 (full IgG) (mouse) (heavy, as listed by the source, chain 1 of 2): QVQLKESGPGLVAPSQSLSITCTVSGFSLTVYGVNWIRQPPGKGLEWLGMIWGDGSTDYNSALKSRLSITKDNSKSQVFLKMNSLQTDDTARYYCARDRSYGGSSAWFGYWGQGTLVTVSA
Sequence of monoclonal mouse antibody aE11 (full IgG) (mouse) (light, as listed by the source, chain 2 of 2): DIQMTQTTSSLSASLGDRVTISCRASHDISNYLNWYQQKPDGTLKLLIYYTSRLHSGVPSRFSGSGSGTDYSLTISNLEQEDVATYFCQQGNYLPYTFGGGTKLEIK
Sequence of aE11 IgG (mouse) (heavy, as listed by the source, chain 1 of 2): as the sequence (heavy, as listed by the source, chain 1 of 2) above
Sequence of aE11 IgG (mouse) (light, as listed by the source, chain 2 of 2): as the sequence (light, as listed by the source, chain 2 of 2) above
Sequence of monomeric human C9, wild type (recombinant) (P02748 22-559): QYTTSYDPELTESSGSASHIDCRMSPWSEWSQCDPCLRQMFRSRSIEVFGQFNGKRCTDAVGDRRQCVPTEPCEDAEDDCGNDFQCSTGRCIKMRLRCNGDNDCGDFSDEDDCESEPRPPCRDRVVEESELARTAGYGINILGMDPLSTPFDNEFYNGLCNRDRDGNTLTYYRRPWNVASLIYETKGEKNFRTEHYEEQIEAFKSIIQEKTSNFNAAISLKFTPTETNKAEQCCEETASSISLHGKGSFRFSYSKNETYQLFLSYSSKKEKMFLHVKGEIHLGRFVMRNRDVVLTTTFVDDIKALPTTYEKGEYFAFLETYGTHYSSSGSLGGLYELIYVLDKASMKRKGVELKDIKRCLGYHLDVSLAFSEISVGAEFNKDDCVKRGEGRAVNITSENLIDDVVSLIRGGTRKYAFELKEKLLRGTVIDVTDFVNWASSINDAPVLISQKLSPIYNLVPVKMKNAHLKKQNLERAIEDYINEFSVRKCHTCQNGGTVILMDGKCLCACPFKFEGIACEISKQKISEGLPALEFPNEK
Sequence of human complement C9, wild type, monomeric (P02748 22-559): as above

In the case of “human complement C9 V68E, monomeric (from UniProt P02748 22-559) (natural protein)”, in test [1], the koff is 3.11e-05 s⁻¹ and 3.58e-05 s⁻¹.
On the same count and under the same terms, the value for “human complement C9, wild type, monomeric (from UniProt P02748 22-559) (natural protein)” was 0.000169 s⁻¹ and 0.000183 s⁻¹.
Consider “monomeric human C9 R65Q (from UniProt P02748 22-559) (natural protein)”, for which the koff with aE11 IgG (mouse) was 0.0001 s⁻¹.
Turning to “human complement C9 R65Q, monomeric (from UniProt P02748 22-559) (natural protein)”, the koff in test [1] was 0.000214 s⁻¹ and 8.63e-05 s⁻¹.
Take “monomeric human C9 P72E (from UniProt P02748 22-559) (natural protein)”: in the test with aE11 IgG (mouse), the fold reduction of binding against wild-type monomeric C9 was 2 fold and the koff is 0.0001 s⁻¹.
As for “monomeric human C9, wild type (recombinant) (from UniProt P02748 22-559) (natural protein)”, in the test with aE11 IgG (mouse), the Kd was 500 to 2000 nM and the koff amounted to 0.0001 s⁻¹.
Regarding “polyC9 (in vitro homo-oligomerised human C9, wild type) (complex)”, the stoichiometry N in test [2] turned out to be 22.
Regarding “human complement C9 P72E, monomeric (from UniProt P02748 22-559) (natural protein)”, the koff in test [1] was 0.000106 s⁻¹ and 6.14e-05 s⁻¹.
On the same count and under the same terms, the value for “human complement C9 F262C/V405C, disulphide-trapped, monomeric (from UniProt P02748 22-559) (natural protein)” was 0.000267 s⁻¹ and 0.000353 s⁻¹.
In the test with aE11 IgG (mouse), “monomeric human C9 V68E (from UniProt P02748 22-559) (natural protein)” gave a fold reduction of binding against wild-type monomeric C9 of 2 fold and a koff of 0.0001 s⁻¹.
In the test with aE11 IgG (mouse), “disulphide-trapped C9 variant (F262C/V405C) (from UniProt P02748 22-559) (natural protein)” showed a koff of 0.0001 s⁻¹.
